Laboratory results from PMC3693578 (Molecular cell, 2012).

Target: T1, TSC1 (hamartin), endogenous human (human (endogenous in HeLa), UniProt Q92574 1-1164)
T1 sequence (looked up): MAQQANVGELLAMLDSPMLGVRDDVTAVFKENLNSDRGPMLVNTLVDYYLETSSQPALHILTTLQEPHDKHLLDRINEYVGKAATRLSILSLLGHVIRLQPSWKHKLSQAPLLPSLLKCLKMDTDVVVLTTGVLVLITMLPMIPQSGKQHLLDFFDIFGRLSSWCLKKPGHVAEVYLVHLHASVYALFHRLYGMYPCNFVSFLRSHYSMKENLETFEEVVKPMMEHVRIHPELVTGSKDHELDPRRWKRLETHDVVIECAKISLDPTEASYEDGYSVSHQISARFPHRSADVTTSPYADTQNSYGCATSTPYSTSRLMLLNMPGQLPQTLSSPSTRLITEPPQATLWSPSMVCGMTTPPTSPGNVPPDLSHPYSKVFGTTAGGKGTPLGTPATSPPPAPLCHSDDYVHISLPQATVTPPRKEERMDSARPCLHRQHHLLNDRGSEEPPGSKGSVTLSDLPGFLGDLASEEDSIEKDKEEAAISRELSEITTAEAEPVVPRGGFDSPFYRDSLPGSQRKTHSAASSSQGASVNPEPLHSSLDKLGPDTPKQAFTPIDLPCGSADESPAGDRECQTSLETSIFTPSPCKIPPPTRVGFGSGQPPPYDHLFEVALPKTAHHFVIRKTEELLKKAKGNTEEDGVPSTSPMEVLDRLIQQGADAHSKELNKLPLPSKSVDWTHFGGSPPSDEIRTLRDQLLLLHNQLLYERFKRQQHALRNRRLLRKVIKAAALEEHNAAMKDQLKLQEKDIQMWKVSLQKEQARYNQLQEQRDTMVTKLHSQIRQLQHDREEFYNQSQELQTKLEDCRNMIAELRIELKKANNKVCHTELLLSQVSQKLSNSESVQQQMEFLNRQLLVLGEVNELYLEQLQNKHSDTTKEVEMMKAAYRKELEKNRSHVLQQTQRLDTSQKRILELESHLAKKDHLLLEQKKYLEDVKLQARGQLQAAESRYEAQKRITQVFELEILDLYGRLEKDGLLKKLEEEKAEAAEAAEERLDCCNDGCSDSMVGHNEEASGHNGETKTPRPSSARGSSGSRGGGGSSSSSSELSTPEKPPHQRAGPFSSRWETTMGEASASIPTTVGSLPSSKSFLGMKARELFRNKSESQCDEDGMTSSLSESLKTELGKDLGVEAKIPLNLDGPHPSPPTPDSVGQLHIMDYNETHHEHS
Assay: affinity purification with mass spectrometry

- stoichiometry N: ~1
B1: TSC2 (tuberin), endogenous human (natural protein)
chain: not shown
